For 1 substance, stoichiometry N results are on record in article PMC10483038.

The assay deals with MBP-Vpu full length (HIV-1 Vpu fused to maltose binding protein) (HIV-1) (UniProt P05919). In words: cryo-EM structure; single-particle cryoEM of MBP-FL Vpu at 10 µM in 25 mM Tris pH 7.4, 150 mM NaCl, 100 µM TCEP; two maps at ~25 Å; protomers counted by docking MBP into the densities.

As a reminder, the stoichiometry N is a count of units in the complex or per binding partner. The substance “MBP-Vpu full length (HIV-1 Vpu fused to maltose binding protein) (from UniProt P05919 1-82) (natural protein)” registered a stoichiometry N of 6 to 7.
